From patent US20220112288A1 (published 2022)
Residue numbers refer to the chain shown, from its start. Each block holds one binder with its values, some of them ahead of it.

Assays:
[1] = target: T1, human CD4 on cells (SKW3 cells; human PBMCs) (human, UniProt P01730 26-458); test: FACS primary screen, non-clonal hybridoma supernatant, SKW3 vs SKW3 CD4 knockout cells, anti-mouse Fc A647
T1 construct: whole, on cells; SKW3 CD4 knockout cells served as the negative cell line; also called hCD4

[2] = target: T1, human CD4 on cells (SKW3 cells; human …); test: FACS confirmation, supernatant on human PBMCs, anti-mouse Fc 647, CD4+ percent of viable cells
[3] = target: T1, human CD4 on cells (SKW3 cells; human …); test: FACS confirmation, supernatant on SKW3 WT cells, anti-human kappa FITC; background gMFI 2500
huCD4-HIS [4] = target: T2, huCD4-HIS (human, UniProt P01730 26-390, limits assumed); test: ELISA binning, competitor Ibalizumab; 100 ng/mL huCD4-HIS, anti-HIS HRP detection; background 45, max binding 3000000
T2 construct: the ELISA binning is not described in the text of this stretch

[5] = target: T1, human CD4 on cells (SKW3 cells; human …); test: FACS confirmation, supernatant on human PBMCs, anti-mouse Fc 647, CD4+ gate
[6] = target: T1, human CD4 on cells (SKW3 cells; human …); test: FACS binning on SKW3 cells pre-incubated with supernatant; competitor RPA-T4-PE-Dazzle 594, its signal read; background 783, max binding 15000
[7] = target: T1, human CD4 on cells (SKW3 cells; human …); test: FACS binning on SKW3 cells pre-incubated with supernatant; competitor OKT4a read with anti-human A647 secondary; background 5000, max binding 35000
[8] = target: T1, human CD4 on cells (SKW3 cells; human …); test: FACS primary screen, non-clonal hybridoma supernatant, SKW3 vs SKW3 CD4 knockout cells, anti-human kappa FITC
[9] = target: T1, human CD4 on cells (SKW3 cells; human …); test: FACS binning on SKW3 cells pre-incubated with supernatant; competitor OKT4-A488, its signal read; background 2163, max binding 8200
[10] = target: T1, human CD4 on cells (SKW3 cells; human …); test: FACS confirmation, supernatant on SKW3 WT cells, anti-mouse Fc 647; background gMFI 3300
[11] = target: T3, human CD4 on the surface of SKW3 cells or human PBMCs (human, UniProt P01730 26-458); test: FACS primary screen, non-clonal hybridoma supernatant, SKW3 vs SKW3 CD4 KO cells, anti-human kappa FITC
T3 construct: whole, on cells; SKW3 CD4 knockout cells served as the negative cell line; also called hCD4; SKW3 WT

[12] = target: T3, human CD4 on the surface of SKW3 cells …; test: FACS binning on SKW3 cells; competitor RPA-T4-PE-Dazzle 594 (its signal read); background 783, max binding 15000
[13] = target: T3, human CD4 on the surface of SKW3 cells …; test: FACS confirmation, supernatant on SKW3 WT cells, anti-human kappa FITC; background gMFI 2500
[14] = target: T3, human CD4 on the surface of SKW3 cells …; test: FACS confirmation, supernatant on human PBMCs, anti-mouse Fc A647
huCD4-HIS [15] = target: T4, huCD4-HIS (human, UniProt P01730 26-390, limits assumed); test: ELISA binning; competitor ibalizumab; 100 ng/mL huCD4-HIS, anti-HIS HRP detection; background 45, max binding 3000000
T4 construct: not shown: HIS tag

[16] = target: T3, human CD4 on the surface of SKW3 cells …; test: FACS binning on SKW3 cells; competitor OKT4a, anti-human A647 secondary (its signal read); background 5000, max binding 35000
[17] = target: T3, human CD4 on the surface of SKW3 cells …; test: FACS primary screen, non-clonal hybridoma supernatant, SKW3 vs SKW3 CD4 KO cells, anti-mouse Fc A647
[18] = target: T3, human CD4 on the surface of SKW3 cells …; test: FACS confirmation, supernatant on SKW3 WT cells, anti-mouse Fc A647; background gMFI 3300
[19] = target: T3, human CD4 on the surface of SKW3 cells …; test: FACS confirmation, supernatant on human PBMCs, anti-mouse Fc A647, CD4+ gate
[20] = target: T3, human CD4 on the surface of SKW3 cells …; test: FACS binning on SKW3 cells; competitor OKT4-Alexa Fluor 488 (its signal read); background 2163, max binding 8200

- SKW3 WT vs KO anti-mFc-647 [1]: 6.8 fold
- SKW3 WT anti-hu Kappa FITC, gMFI [3]: 5520 gMFI
- Ibalizumab ELISA binning signal (huCD4-HIS [4]): 20300
- PBMCs, anti-mFc 647 CD4+ gate - RL1 Binding [5]: 257000
- SKW3 FACS Binning RPA-T4-PE-Dazzle 594 [6]: 15200
- SKW3 FACS Binning OKT4a anti-hu A647 Secondary [7]: 5320
- SKW3 WT vs KO anti-hKappa-FITC [8]: 2.5 fold
- SKW3 FACS Binning OKT4 A488 [9]: 11100
- SKW3 WT anti-mFc 647, gMFI [10]: 25000 gMFI
B1: 75110_01D24A (antibody, V domains shown)
VH: QVQLQQWGAGLLKPSETLSLTCAVYGGSFSGYYWSWIRQPPGKGLEWIGEINHSGSTNYNPSLKSRVTISVDTSENQFSLKLNSVTAADTAVYYCARLVNWFDPWGQGTLVTVSS
VL: EIQMTQSPSSVSASVGDRVTITCRASQDISNWLAWYQQKPGKAPNLLIFAASSLQTGVPSRFSGSGSGTDFTLTISSLQPDDFATYYCQQANSFPYSFGQGTNLGIK
notes: Tested as non-clonal AlivaMab Mouse Kappa hybridoma supernatant: human variable domains and human kappa, mouse Fc
- PBMCs, anti-mFc 647 CD4+ Percent Bound of Viable [2]: 31%

- SKW3 WT vs KO anti-mFc-647 [1]: 3 fold
- SKW3 WT anti-hu Kappa FITC, gMFI [3]: 5740 gMFI
- Ibalizumab ELISA binning signal (huCD4-HIS [4]): 823000
- PBMCs, anti-mFc 647 CD4+ gate - RL1 Binding [5]: 218000
- SKW3 FACS Binning RPA-T4-PE-Dazzle 594 [6]: 2590
- SKW3 FACS Binning OKT4a anti-hu A647 Secondary [7]: 30700
- SKW3 WT vs KO anti-hKappa-FITC [8]: 1.7 fold
- SKW3 FACS Binning OKT4 A488 [9]: 9810
- SKW3 WT anti-mFc 647, gMFI [10]: 19400 gMFI
B2: 75110_02I16A (antibody, IgG1, V domains shown)
VH: QVQLQQWGAGLLKPSETLSLTCDVYGGSFSGYYWTWIRQPPGKGLEWIGEINHSGTTNSNPSLKSRVTISVDTSKSQFSLRLSSVTAADTAVYFCTRELNWFDPWGQGTLVTVSS
VL: DIQMTQSPSSVSASVGDRVTITCRASQDIANWLAWYQQKPGKAPQLLIYAASSLLGGVPSRFSGSGSGADFTLTISSLHPEDFATYYCQQANSFPYTFGQGTKLEIK
notes: Tested as non-clonal AlivaMab Mouse Kappa hybridoma supernatant: human variable domains and human kappa, mouse Fc; also called 75110_02116A
- PBMCs, anti-mFc 647 CD4+ Percent Bound of Viable [2]: 29%

- SKW3 WT vs KO anti-hKappa-FITC [11]: 1 ratio
- RPA-T4-PE-Dazzle 594 signal [12]: 13100
- SKW3 WT anti-hu Kappa FITC, gMFI [13]: 4000 gMFI
- Ibalizumab ELISA binning signal (huCD4-HIS [15]): 1.63e+06
- OKT4a anti-hu A647 Secondary signal [16]: 43700
- SKW3 WT vs KO anti-mFc-647 [17]: 2.6 ratio
- SKW3 WT anti-mFc 647, gMFI [18]: 21100 gMFI
- PBMCs, anti-mFc 647 CD4+ gate - RL1 Binding [19]: 190000
- OKT4 A488 signal [20]: 4180
B3: 75110_11D03A (antibody, V domains shown)
VH: EVQLVESGGGLVQPGGSLRLSCAASGFTFSSYWMSWVRQAPGKGLEWVANINQDGNEKYYVDSVKGRFTISRDNAKNSLFLQMNSLRAEDTAVYYCAREGGQWLALDYWGQGALVTVSS
VL: DIQMTQSPSSVSASVGDRVTITCRASQGISSWLAWYQQKPGKAPKFLISGASSLQSGVPSRFSGSGSGTDFTLTISSLQPEDFATYYCQQANSFPWTFGQGTKVEIK
notes: Tested here as non-clonal hybridoma supernatant from AlivaMab Mouse Kappa mice (detected with anti-mouse Fc and anti-human kappa)
- PBMCs, anti-mFc 647 CD4+ Percent Bound of Viable [14]: 29%

- SKW3 WT vs KO anti-hKappa-FITC [11]: 2.8 ratio
- RPA-T4-PE-Dazzle 594 signal [12]: 12300
- SKW3 WT anti-hu Kappa FITC, gMFI [13]: 7600 gMFI
- Ibalizumab ELISA binning signal (huCD4-HIS [15]): 663000
- OKT4a anti-hu A647 Secondary signal [16]: 35900
- SKW3 WT vs KO anti-mFc-647 [17]: 6.5 ratio
- SKW3 WT anti-mFc 647, gMFI [18]: 36000 gMFI
- PBMCs, anti-mFc 647 CD4+ gate - RL1 Binding [19]: 319000
- OKT4 A488 signal [20]: 2280
B4: 75110_03D16A (antibody, V domains shown)
VH: B3 VH with N56G, F80Y, A97V, A113T
VL: B3 VL with A34T, S49Y, G50A, S67F
notes: as for B3
- PBMCs, anti-mFc 647 CD4+ Percent Bound of Viable [14]: 31%

- SKW3 WT vs KO anti-hKappa-FITC [11]: 2.4 ratio
- RPA-T4-PE-Dazzle 594 signal [12]: 14700
- SKW3 WT anti-hu Kappa FITC, gMFI [13]: 5930 gMFI
- Ibalizumab ELISA binning signal (huCD4-HIS [15]): 1.26e+06
- OKT4a anti-hu A647 Secondary signal [16]: 43700
- SKW3 WT vs KO anti-mFc-647 [17]: 7.5 ratio
- SKW3 WT anti-mFc 647, gMFI [18]: 32300 gMFI
- PBMCs, anti-mFc 647 CD4+ gate - RL1 Binding [19]: 321000
- OKT4 A488 signal [20]: 2140
B5: 75110_01A06A (antibody, V domains shown)
VH: B3 VH with Q53E, F68L, F80Y, Y95F, A105S
VL: B3 VL with T20S, F46I, S49Y
notes: as for B3
- PBMCs, anti-mFc 647 CD4+ Percent Bound of Viable [14]: 31%
